Measurements reported in publication PMC2806190 (Cell, 2009).
Each block holds one molecule with its values, some of them ahead of it.

Key:
[1] = target: Dsl1 (residues 1–754) (S. cerevisiae) (UniProt P53847)
[2] = target: Sec39 (residues 1–709) (S. cerevisiae) (UniProt Q12745)
Sec39 (residues 1–709) [3] = target: T1, Sec39 (residues 1–709) (S. cerevisiae, UniProt Q12745 1-709); test: SEC
T1 sequence (looked up): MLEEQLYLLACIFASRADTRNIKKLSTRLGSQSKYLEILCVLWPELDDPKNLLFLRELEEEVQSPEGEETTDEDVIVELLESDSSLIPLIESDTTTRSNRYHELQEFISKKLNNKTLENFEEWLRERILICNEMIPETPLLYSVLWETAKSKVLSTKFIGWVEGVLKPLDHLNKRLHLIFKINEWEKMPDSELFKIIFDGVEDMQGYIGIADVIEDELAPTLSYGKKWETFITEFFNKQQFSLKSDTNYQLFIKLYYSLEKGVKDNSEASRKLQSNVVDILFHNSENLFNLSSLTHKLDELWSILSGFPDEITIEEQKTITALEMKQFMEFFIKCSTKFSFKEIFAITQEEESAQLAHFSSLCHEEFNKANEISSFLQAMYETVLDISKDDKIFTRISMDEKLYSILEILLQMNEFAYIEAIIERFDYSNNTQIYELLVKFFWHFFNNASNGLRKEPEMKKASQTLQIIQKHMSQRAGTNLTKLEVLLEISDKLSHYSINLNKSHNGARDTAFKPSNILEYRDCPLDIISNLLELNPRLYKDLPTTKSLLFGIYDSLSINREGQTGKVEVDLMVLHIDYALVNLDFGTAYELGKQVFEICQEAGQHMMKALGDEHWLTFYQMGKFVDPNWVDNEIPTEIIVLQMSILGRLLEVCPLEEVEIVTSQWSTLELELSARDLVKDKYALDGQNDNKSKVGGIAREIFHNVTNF

His-tagged Sec39 = target: T2, His-tagged Sec39 (S. cerevisiae, UniProt Q12745 1-709); test: co-purification
T2 sequence (looked up): T1 sequence (looked up)

Sec39 (residues 1–709) [4] = target: T1, Sec39 (residues 1–709); test: co-purification
Sec39 residues 1–392 = target: T3, Sec39 residues 1–392 (S. cerevisiae, UniProt Q12745 1-392); test: SEC
T3 sequence (looked up): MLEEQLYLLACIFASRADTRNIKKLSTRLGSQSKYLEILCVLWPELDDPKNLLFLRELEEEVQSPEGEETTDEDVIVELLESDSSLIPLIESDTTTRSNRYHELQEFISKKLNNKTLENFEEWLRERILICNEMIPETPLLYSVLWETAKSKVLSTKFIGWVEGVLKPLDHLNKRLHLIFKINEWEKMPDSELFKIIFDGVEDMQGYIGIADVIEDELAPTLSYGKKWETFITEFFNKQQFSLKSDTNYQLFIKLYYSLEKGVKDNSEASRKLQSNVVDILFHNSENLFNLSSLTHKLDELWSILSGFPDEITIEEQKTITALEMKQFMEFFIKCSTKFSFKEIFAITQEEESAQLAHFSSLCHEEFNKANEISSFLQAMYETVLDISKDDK

Molecule: Tip20 (residues 1–701) (from UniProt P33891 1-701) (natural protein)
Kd [1]: 100 nM

Molecule: Dsl1 (residues 1–754) (from UniProt P53847 1-754) (natural protein)
Kd [2]: 10 nM

The remaining lines, values ahead:

binding result (Sec39 (residues 1–709) [3]): binds
Molecule: MAETSNDPFLSYVLSSKQLTNLNRLRRKAVTKQLG (peptide, UniProt P53146 1-35, looked up) [N-terminal peptide of Use1 (residues 1–35)]

binding result (His-tagged Sec39): binds
binding result (Sec39 (residues 1–709) [4]): binds
B1: Use1 cytoplasmic domain (residues 1–212), TF tag removed (domain or fragment, S. cerevisiae, UniProt P53146 1-212, looked up)
chain: MAETSNDPFLSYVLSSKQLTNLNRLRRKAVTKQLGSSDDNKVSEEFLRYQHTYQREAFEYLQTKHDAHKIMESQYEQYQSSSKTRRYSIDLDSVDAVDTESQTEYPNEEFIDRNEDSEAVMELRKRLLGKGQNKGLGYETTKSVDRQIEDQDTLQQDLIQDMSKLVGSLKQGAVAFQSALDEDKQVLGAAEIGIQVASQGLMDVSGKLRKYD

binding result (Sec39 residues 1–392): binds
B2: TF-Use1 (residues 1–212 fused to trigger factor) (domain or fragment, S. cerevisiae, UniProt P53146 1-212, looked up)
chain: B1 chain
